Article PMC7112951, “Structures of the ATP-fueled ClpXP proteolytic machine bound to protein substrate” (eLife, 2020)

Molecular target: the molecule itself
Assay: cryo-EM structure; ClpX^∆N pseudohexamer 4 µM and ClpP14 1.8 µM (2 µM in the results) in EM buffer (20 mM HEPES, pH 7.5, 100 mM KCl, 25 mM MgCl2, 5 mM ATPγS), 5 min at 25°C before vitrification; doubly capped complexes analysed

B1: one ClpX^∆N E185Q subunit (unit) of the single-chain pseudohexamer (domain or fragment)
chain: not shown
notes: ClpX, E. coli K12, residues 62-424 (ClpX^∆N); In the sample the six units are joined on one chain by six-residue linkers; written alone for the contacts between neighbouring units; also called ClpX^∆N subunit; subunits A-F; source: E. coli strain ER2566, purified, as part of the single-chain pseudohexamer m1
  stoichiometry N: 6
